In data set [1] the target is T1, human serum albumin (HSA) (human, UniProt P02768 25-609).
T1 construct: also called commercially available human serum albumin; human serum albumin in human plasma
Briefly: analytical HPLC; 100 µM conjugate with 700 µM purchased HSA in PBS, room temperature; covalent binding. The procedure: A human serum albumin (HSA) solution was prepared in PBS at final concentration of 700 μM. […] The samples were subjected to analytical HPLC (see FIG. 21).

For data set [2], the target named is HSA-maleimide-KGDEVD-PABC-doxorubicin (SEQ ID NO: 28).

Primed or numbered codes have the meaning given here. No end group written: not given here. *: point of attachment. Hexanoyl(6-maleimido) = O=C1C=CC(=O)N1CCCCCC(=O)*; PABC′ = p-aminobenzylcarbamate

Take K(Hexanoyl(6-maleimido))GDEVD-{PABC′-doxorubicin} (not fully specified (N-terminus), Peptide-drug prodrug conjugate) [maleimide-KGDEVD-PABC-doxorubicin (SEQ ID NO: 10)]: the binding result in data set [1] is given as “binds”.

B1: recombinant human caspase-3 (protein)
chain: SGISLDNSYKMDYPEMGLCIIINNKNFHKSTGMTSRSGTDVDAANLRETFRNLKYEVRNKNDLTREEIVELMRDVSKEDHSKRSSFVCVLLSHGEEGIIFGTNGPVDLKKITNFFRGDRCRSLTGKPKLFIIQACRGTELDCGIETDSGVDDDMACHKIPVEADFLYAYSTAPGYYSWRNSKDGSWFIQSLCAMLKQYADKLEFMHILTRVNRKVATEFESFSFDATFHAKKQIPCIVSMLTKELYFYH
For B1, the “HPLC monitored cleavage; liberation of free doxorubicin” value in data set [2] is given as “The free doxorubicin was completely liberated from the HSA-maleimide-KGDEVD-PABC-doxorubicin (SEQ ID NO: 28) conjugate within 1 hour”.

These data come from patent publication US20160144050A1 (PHAROSGEN, published 2016).
